In patent EP2954934A1 (3B Pharmaceuticals GmbH, dated 2015):

Experiments:
[1] = target: NTR1 on HT29 or NTR1-expressing HEK293 cells (UniProt P30989); assay: cell-based or functional assay
[2] = target: human neurotensin receptor 1 (NTR1) prepared from CHO cells recombinantly expressing the human receptor (human) (UniProt P30989); assay: radioligand displacement, 125I-(Tyr3-neurotensin) on human NTR1 from CHO cells
Sequence of human neurotensin receptor 1 (NTR1) prepared from CHO cells recombinantly expressing the human receptor (human) (P30989 whole entry): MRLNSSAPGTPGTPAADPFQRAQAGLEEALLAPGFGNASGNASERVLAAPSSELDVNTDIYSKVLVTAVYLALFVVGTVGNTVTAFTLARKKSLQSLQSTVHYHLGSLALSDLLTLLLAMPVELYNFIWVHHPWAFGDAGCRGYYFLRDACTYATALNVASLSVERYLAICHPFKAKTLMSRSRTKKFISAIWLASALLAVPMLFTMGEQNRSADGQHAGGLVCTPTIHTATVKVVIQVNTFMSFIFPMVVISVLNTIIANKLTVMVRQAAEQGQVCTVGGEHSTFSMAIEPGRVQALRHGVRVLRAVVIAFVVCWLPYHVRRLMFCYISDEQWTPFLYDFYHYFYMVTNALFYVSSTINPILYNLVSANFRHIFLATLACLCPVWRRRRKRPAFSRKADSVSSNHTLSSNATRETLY

Sequence of NTR1 on HT29 or NTR1-expressing HEK293 cells (P30989 whole entry): as above

Substance: 1206-Glutar-Ttds-Lys(DOTA)-Ttds-GABA-Asn-Ala-Val-Pro-Asn-Leu-Arg-Gly-Asp-Leu-Gln-Val-Leu-Ala-Gln-Lys (peptide)
- Agonistic Effect EC50 [nM] (functional Ca2+ mobilisation assay) [1]: > 50000 nM
- Antagonistic Effect IC50 [nM] (functional Ca2+ mobilisation assay) [1]: 18 nM
- IC50 [2]: 10 nM

Substance: 1206-Glutar-Ttds3-Asn-Ala-Val-Pro-Asn-Leu-Arg-Gly-Asp-Leu-Gln-Val-Leu-Ala-Gln-Lys-Val-Ala-Arg-Thr-GA (peptide)
- Agonistic Effect EC50 [nM] (functional Ca2+ mobilisation assay) [1]: > 50000 nM
- Antagonistic Effect IC50 [nM] (functional Ca2+ mobilisation assay) [1]: 38 nM
- IC50 [2]: 9.9 nM

Substance: 1206-Glutar-Ttds-Lys(1206-Glutar-Ttds)-Ttds-Asn-Ala-Val-Pro-Asn-Leu-Arg-Gly-Asp-Leu-Gln-Val-Leu-Ala- (peptide)
- Agonistic Effect EC50 [nM] (functional Ca2+ mobilisation assay) [1]: > 50000 nM
- Antagonistic Effect IC50 [nM] (functional Ca2+ mobilisation assay) [1]: 12 nM
- IC50 [2]: 7.5 nM
